Laboratory results reported in the nanobody polyreactivity screen of Harvey et al. (2022).

Assay: yeast display, Sf9 membrane polyspecificity reagent, FACS + sequencing; frameworks hold sequencing errors
Procedure, shortened: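 Using colony PCR, genes from sorted yeast display clones were amplified, then sequenced on MiSeq at 2 × 250 and filtered by CDR length. The clones had been stained with 10% biotinylated, detergent-solubilized Sf9 membrane reagent for 1 hour at 4 °C and sorted by FACS into low and high (top ~1%) gates on anti-HA and streptavidin fluorescence. Polyreactivity labels come from the gate of origin.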

Question: With “QVQLQESGGCLVQAGGSLRLSCAASGTNSDSGLMGWYRQAPGKERELVAGISSGGITTYADSVKGRFTISRDNAKNTVYLQMNSLKPEDTAVYWGQGTQVTVSC” as the sequence, how does the “polyreactivity (PSR sort gate)” value read?
Answer: low polyreactivity

Question: With “QVQLVESGGGLVQAGGSLRLSCAASGSIFYYNAMGWYRQAPGKERELVAAISRSGGSTYYADSVKGRFTISRDNAKNTVYLQMNSLKPEDTAVYYCAARPNFTPYEYGYWGQGTQVTVSS” as the sequence, how does the “polyreactivity (PSR sort gate)” value read?
Answer: low polyreactivity

Question: Which “polyreactivity (PSR sort gate)” value does the source give for “QVQLVESGGGLVQAGVSLRIRCAASGSIFFFNAMGWYRQAPGKEREFVAAITSSSGRTYYAYSVKVRFTISRDNAKNTVYLQMKSLKPEDTAVYYCAAQVPEDNETVDYWGQGTQVTVSS” here?
Answer: low polyreactivity

Question: Which “polyreactivity (PSR sort gate)” value does the source give for “QVQLVESGGGLVQAGGSLRLSCAASGRTFKPNTMGWYRQAPGKERELVAAITSSGGSTYYADSVKGRFTISRDNAKNTVYLQMNSLKPEDTAVYYCAARGGAPYRIFKDDYWGQGTQVTVSS” here?
Answer: high polyreactivity

Question: For “QVQLVESGGGLVQAGGSLRLSCAASGIFGYNAMGWYIQAPGKERELVAAITSSGTSTYYADSVKGRFTISRDNAKNTVYLQMNSLKPEDTAVYYCAALHSGTWTGYGYWGQGTQVTVSS”, which “polyreactivity (PSR sort gate)” value is on record?
Answer: low polyreactivity

Question: For “QVQLVESGGGLVQAGGSLRLSCAASGRIYGVYALGWYRQAPGKERELVAAITSSGGSTYYADSVKGRFTISRDNAKNTVYLQMNSLKPEDTAVYYCAADNTFRDDYFLYYLFNYNYWGQGTQVTVSS”, which “polyreactivity (PSR sort gate)” value is on record?
Answer: low polyreactivity

Question: For “QVQLVESGGGLVQAGGSLRLSCAASGSIFGYYAMGWYRQAPGKERELVATISNDGSTKYADSVKGRFTISRDNAKNTVYLQMNSLKPEDSAVYYCAADSARHGRDTYQPEYRNDYWGQGTQVTVSS”, which “polyreactivity (PSR sort gate)” value is on record?
Answer: low polyreactivity

Question: For “QVQLVESGGGLVQAGGSLRLSSAASGSIFTYYAMGGYRQAPGKEREFVAGISWSGGRTYYADSVKARFTISRDNAKNTGYLQMNSLKPEDTAVYYCNRQYRYIPSPFDYGGQGTQVTVSS”, which “polyreactivity (PSR sort gate)” value is on record?
Answer: low polyreactivity

Question: Which “polyreactivity (PSR sort gate)” value does the source give for “QVQLVESAGGLVQAGGSLRLSCAAYGIIFKIYAMGWYRQAPGKERELVAAITRSGTRTYYADSVKGRFTISRDNEKNTVYFQMNSLKPEDTAGYYCNAYTSLAYDLDYWGQGTQVTVSS” here?
Answer: high polyreactivity

Question: Which “polyreactivity (PSR sort gate)” value does the source give for “QVHLVESGGGLVQAGGRLRLSCAASGSIFDRYAMGWYRQAPGKEREFVARIRSSTGGTDYADSVKGRFTISRDNAKNTVYLQMNILKPEDTAVYYCAASSSHYYYWIQGSYWGRGVYWGQGSQVTVSS” here?
Answer: high polyreactivity

Question: Which “polyreactivity (PSR sort gate)” value does the source give for “QVQLVESGGGLVQAGGSLSLSCAASGSTFGRYVMGWDRQAPGTERELVAAISYSGGRSYYADSVKGRFTMSRDNAKNTVYLQMNSLKPEDTAVYYCNAYGIDTGDYWGQGTQVTVSS” here?
Answer: high polyreactivity

Question: With “QFQLVESGGGLVQAGGSLRLSCAASGCIFLYYAMGSYRPATGNERELVASISSGGSTNYADSVKGRFTISRDNAKNTVYLQMNSLKPEDTAVYYCAARPYGGGRRSIYYYWGQGTQVTESS” as the sequence, how does the “polyreactivity (PSR sort gate)” value read?
Answer: high polyreactivity

Question: With “QVQLVESGGGLVHAGGSRRLSCAASGNFFRYYVLGWYRQAPGTERECVAAITSSGGSKYYADSVKGRFTISRDNANNTVYLQMNSLKPEDTAVYYCAKDYWDPGWAEYDFWGQGTQVTVSS” as the sequence, how does the “polyreactivity (PSR sort gate)” value read?
Answer: low polyreactivity

Question: Which “polyreactivity (PSR sort gate)” value does the source give for “QVQLVESGGGLVQAGGSLPLSSAASGITLRYYAMRWYRQAPGKERELVAAMSGRGGGTYYADSVKGRFTISRDNAKNTVYLQMNSLKPEDTAVYYCNAVGQQQVEYEYWGQGTQVTVSS” here?
Answer: high polyreactivity

Question: For “QVQLVESGGGLVQAGGSLRLSCAASGSIFRQYAMGWYRQAPGKERELVAAIRSGGSTYYADSVKGRFTISRDNAKNTVYLQMNSLKPEDTAVYYCATRYHWSGYYYWGQGTQVTVSS”, which “polyreactivity (PSR sort gate)” value is on record?
Answer: high polyreactivity

Question: For “QLQLVESGGGLVQAGGSLRLSCAASGFTFSAYAMGSYRQAPGKERELVAAISWSGGSTYYADSVKGRFTISRDNAKNTVYLQRNSLKPEDTAVYYCAADFHSYYRFDYWGQGTQVTVSS”, which “polyreactivity (PSR sort gate)” value is on record?
Answer: high polyreactivity

Question: With “QVQLVESGGGLVQAGGSLRLSCAASGRTLGRYAMGWYRQAPGKERELVAAINVGGGTTHYADSVKGRFTISRDNAKNTVYLQMNSLKPEDTAVYYCAASYRDGHIRHDYWGQGTQVTVSS” as the sequence, how does the “polyreactivity (PSR sort gate)” value read?
Answer: low polyreactivity

Question: For “QVQLVESGGGLVQAGGSLRLSCAASGFTFYGYTMGWYRQAPGKERELVAAISRSGGRTYYADSVKGRFTISRDNAKNTVYLQMNSLKPEDTAVYYCAGDSRTNGYDYWGQGTQVTVSS”, which “polyreactivity (PSR sort gate)” value is on record?
Answer: high polyreactivity

Question: Which “polyreactivity (PSR sort gate)” value does the source give for “QVQLVESGGGLVQAGGSHRLSCAASGSTLSVNAMGWYRQAPGKERELGAAIDFDGGDTYYADSVKGRFTLSRDNAKNTVYLQMNSLKPEDTAVYSCNAALRWKYDWVQGTQVTVSS” here?
Answer: low polyreactivity

Question: For “QVQLVESGGGLVLAGVSLRLSCAASGSTFPYNAMGWYRQAPGKERELVAAITSRGGSTYYADSVKGRFTISRDNAKNTVYLQMNSLKPEDTAVYYCATPGDTYGWTRRRYYYWGQGTQVTVSS”, which “polyreactivity (PSR sort gate)” value is on record?
Answer: high polyreactivity

Question: With “QVQHVESGGCLVQAGGSLRLSCAASGSIFYRYAMGWYRQGPGKESQLVAAIRRGGSTNYADSVKGRFTISRDNAKYTVSLQMNSLKPEDTAVYYCAAGRFTYAAQSYEYWGQGTQVTVSS” as the sequence, how does the “polyreactivity (PSR sort gate)” value read?
Answer: high polyreactivity

Question: With “QVQLVESGGGLVQAGGSLRLSCASSGRTLRRYAMGWYRQAPGKERELVAAISRSGSSTYADSVKGRFTISRDNAKNTVYLQMNSLKPEDTAVYYCNAYQPRYVYWGQGTQVTVSS” as the sequence, how does the “polyreactivity (PSR sort gate)” value read?
Answer: high polyreactivity

Question: Which “polyreactivity (PSR sort gate)” value does the source give for “QVQLVESGGGLVQAGGSLRFSCAASGSIFYVYAMGWYRQAPGKERELVAAIRWSGGSTYYADSVKGRFTISRDNAKKSVYLQMNSLKPEDTAVYYCAADAIPDSVCYWEYDYWGQGTQVTVSS” here?
Answer: low polyreactivity

Question: For “QVQLVESGGGLVQAGGSLRLSCAASGSTFAGYAMGWYRQAPGKERELVAAISYSGGTTYYADSVKGRFTISRDNAKNTVYLQMNSLKPEDTAVFYCAARKKYKTPSYDMYYWGQGTQVTVSS”, which “polyreactivity (PSR sort gate)” value is on record?
Answer: high polyreactivity

Question: With “QVQLVESGGGLVQAGGSLRLSCAASGFTFLYGMGWYRQAPGEERELVAAISNTGGSTYYADSVKGRFTISRDNAKNTVYLQMNSLKPEDTAVYYCAADGGQWWVFYALDFWGQGTQVTVSS” as the sequence, how does the “polyreactivity (PSR sort gate)” value read?
Answer: low polyreactivity

Question: Which “polyreactivity (PSR sort gate)” value does the source give for “QVQLVESGGGLVQAGGSLRLSCAASGSIFRGYAMGWYRQAPGKERELVAGIRGSDGSTYYADSVKGRFTISRDNAKNTVYLQMNSLKPEDTAVYYCAADRRYLDRDKHRYGYWGQGTQVTVSS” here?
Answer: low polyreactivity

Question: Which “polyreactivity (PSR sort gate)” value does the source give for “QVQLVLSGGGLVQAGGSLRLSCAASGNTIIRYAMGWYRQEPGKESELVAAISYSGGRTYYADSVKGRFTISRDNAKNTVYLQMNSLKPEDTAVYYCAARYYRSGYRKKIYYWGQGTQVTVSS” here?
Answer: high polyreactivity

Question: For “QVQLVESGGGLVQAGGSLRLSCAASGSIFVIYTMGWYRQAPGKERELVAVITWSTGNTYYADSVKGRFTISRDNAKNTVYLQMNSLKPEDTAVYYCAARTTSRWRSGAYYYWGQGTQVTVSS”, which “polyreactivity (PSR sort gate)” value is on record?
Answer: high polyreactivity

Question: With “QVQLVESGGGLVQAGGSLRLSGAASGRIFAQYAMGWYRPAPAKERELVAAITAGDDTYADSVKGRFTISRDNAKNTVYLQMNSLKPEDTAVYYCAAETWDLTWWGAYDLGEYWGQGTQVTVSS” as the sequence, how does the “polyreactivity (PSR sort gate)” value read?
Answer: high polyreactivity

Question: Which “polyreactivity (PSR sort gate)” value does the source give for “QVQLVESGGGLVQAGGSLRLSCAASGYTFGEYAMGWYRQAPGKERELVATISLSDGSTNYADSVKGRFTISRDNAKNTVYLQMNSLKPEDTAVYYCATTVWYKKAPYPDGDYWGQGTQVTVSS” here?
Answer: low polyreactivity

Question: Which “polyreactivity (PSR sort gate)” value does the source give for “QVQLQESGGGLVQAGGSLRLSCAASGSIFDGFNMGWYRQAPGKEREFVAAISYGASTYYADSVKGRFTVSRDNAKNSVYLQMNILKPEDTAVYYCAVVPSDGNLFSYWGQGTQVTVSS” here?
Answer: low polyreactivity

Question: For “QVQLVESGGGLVQAGGSLRLSCAASGSTFGWYTMGWYRQAPGKERELVAAITSRGTRTSYADSVKGRFTISRDYAKNTVYLQMNSLKPEDTAVYYCAARVFRGLGEYYWGQGTQVTVSS”, which “polyreactivity (PSR sort gate)” value is on record?
Answer: high polyreactivity

Question: With “QVQLVESGGGLVQAGGSLRLSCAASGITLKYYAIGWYIQAPGKERELVAAITRSGVGTYYADSVKGRFTISRDNAKNTVYLQMNSLKPEDTAVYYCAAASYQSRYWNYYWGQGTQVTVSS” as the sequence, how does the “polyreactivity (PSR sort gate)” value read?
Answer: high polyreactivity

Question: With “QVQLVESGGGLVQAGGSLRLSCAASGYTFPFYTMGWYRQAPGKERELVAAINSGGSTYYADSVKGRFTISRDNAKNTVYLQMNSLKPEDTAVYYCGAGRHSEDNYWGQGTQVTVSS” as the sequence, how does the “polyreactivity (PSR sort gate)” value read?
Answer: high polyreactivity

Question: With “QVQLVESGGGLDQAGGSLRLSGAASGSIFDNAMGWYSQAPGKERELVAAITSGGITNYADSVKGRFTISRDNAKNTVYLQMNSLKPEDTAVYYCNTLSPTQTKYDYWGQGTQVTVSS” as the sequence, how does the “polyreactivity (PSR sort gate)” value read?
Answer: low polyreactivity

Question: With “QVQLVESGGGLVQAGGSLRLSCAASGRTLASNAMGWFRQSPGKERELVAAINRGGSTYYADSVKGRFTISRDNAMNTVYLQMNSLKPEDTAVYYCAVDRYRYPFDYWGQGTQVTVSS” as the sequence, how does the “polyreactivity (PSR sort gate)” value read?
Answer: low polyreactivity

Question: Which “polyreactivity (PSR sort gate)” value does the source give for “QVQLVESGGGLVQAGGSLRLSCAASGSIFGYYAMGWYRQAPGKEREFDADINSRDGGTYYADSVKGRFTISRDNAKNTVYLQMNSLKPEDTAVYYCAAPYYAAWVAVAIEYDYWGQGTQVTVSS” here?
Answer: low polyreactivity

Question: For “QVQLVESGGGLVQAGDSLRLSCAASGLTFSAYVMGWYRQAPGKERELVAATSRRGGTTYYADSVKGRFTISRDNAKITVYLQMNSLKPEDTAVYYCGTDYTSGSSYHVGYCGQGTQVTVSS”, which “polyreactivity (PSR sort gate)” value is on record?
Answer: high polyreactivity

Question: Which “polyreactivity (PSR sort gate)” value does the source give for “QVQLVESGGGLVQAGGRLRLSCAASGRTLWIYAMGWYRQAPGKERELVASITTRGGSTYYADSVKGRFTISRDNAKNTVYLQMKSLKPEDTAVYYCAAEGYTYYTYDPHDYWGQGTQVTVSS” here?
Answer: high polyreactivity

Question: Which “polyreactivity (PSR sort gate)” value does the source give for “QVQLVESGGGLVQAGGSLRLSCAASGNIFAIYARGWYRQAPGKEREFVAAIDWSVASTYYADSVKGRFTISRDNEKNTVYLQMNSLTPEDTAVYSSAAELYGLKYGYYLSYDYWGQGTQVTVSS” here?
Answer: high polyreactivity

Question: Which “polyreactivity (PSR sort gate)” value does the source give for “QVHLVESGGGLVQAGGSLRLSCAASGGTFLVNAMGWYRQAPGKERELVAAINWSGGGTTYADSVKGRFTISRDNAKNTVYLQMNSLKPEDTAVYYCATGSYTTYGYGYWGQGTQVTVSS” here?
Answer: high polyreactivity
